Where two headings read alike, the source gives them in different places.

Data set [1] concerns recombinant ASMT allozymes. Nature of the data set: ASMT enzyme activity of recombinant allozymes (methylation of sodium arsenite with 14C-SAM). It counts as biochemical, human. To be noted: COS-1 cell homogenate, 2.5 mM sodium arsenite, 10 μM 14C-SAM, corrected for transfection efficiency, mean ± SEM. From the text: Recombinant ASMT Expression Constructs and Allozyme Expression: ASMT cDNA sequences for the three non-synonymous cSNPs observed during the resequencing experiments were created using the QuickChange Site-Directed Mutagenesis kit (Stratagene, La Jolla, Calif.), with the wild type ASMT cDNA open reading frame (ORF) in the pUni/V5-His-TOPO (pUni) vector (Invitrogen) as template. Specifically, the full-length wild type ORF was amplified using human brain Marathon-Ready cDNA (Clontech) as template. The resultant ASMT cDNA was subcloned into pUni, a vector that is only 2.3 kilobases in length and thus is well suited for performing “circular PCR” during site-directed mutagenesis. Site-directed mutagenesis was performed using internal primers that contained the variant nucleotide sequences. […]
ASMT Enzyme Activity: ASMT activity was measured using the methods of Zakharayan et al. (Chem. Res. Toxicol. 8(8):1029-1038 (1995)). […] The protein concentration of each recombinant protein preparation was determined by the dye-binding method of Bradford (Anal. Biochem. 72:248-254 (1976)) with bovine serum albumin as a standard. “Blank” samples included the same quantity of COS-1 15,000 x g supernatant from cells that were transfected with “empty” p91023(b) expression vector to correct for endogenous activity. […]

Data set [2] deals with recombinant ASMT allozymes. The data set can be described thus: Substrate kinetic studies, apparent Km of recombinant ASMT allozymes. The data set is classed as biochemical, human. As to the method:
Estimating Apparent Km Values: To estimate apparent Km values of ASMT for the sodium arsenite and SAM, a series of sodium arsenite and SAM concentrations were tested with the recombinant allozymes. Blanks for each substrate concentration were included by assaying COS-1 cell cytosol after transfection with empty p91023(b) vector. […] Apparent Km values were calculated using the method of Wilkinson with a computer program written by Cleland. Wilkinson supra; and Cleland supra.
Alterations in amino acid sequence can alter enzyme substrate affinity and/or catalytic efficiency. […] A series of sodium arsenite and SAM concentrations were used to estimate apparent Km values for recombinant wild type ASMT and for the three variant allozymes.

B1: WT: recombinant wild type (reference) human ASMT polypeptide, SEQ ID NO:5, expressed in COS-1 cells (protein, listed as Homo Sapiens)
chain: MAALRDAEIQKDVQTYYGQVLKRSADLQTNGCVTTARPVPKHIREALQNVHEEVALRYYGCGLVIPEHLENCWILDLGSGSGRDCYVLSQLVGEKGHVTGIDMTKGQVEVAEKYLDYHMEKYGFQASNVTFIHGYIEKLGEAGIKNESHDIVVSNCVINLVPDKQQVLQEAYRVLKHGGELYFSDVYTSLELPEEIRTHKVLWGECLGGALYWKELAVLAQKIGFCPPRLVTANLITIQNKELERVIGDCRFVSATFRLFKHSKTGPTKRCQVIYNGGITGHEKELMFDANFTFKEGEIVEVDEETAAILKNSRFAQDFLIRPIGEKLPTSGGCSALELKDIITDPFKLAEESDSMKSRCVPDAAGGCCGTKKSC
What is called Km is the concentration of substrate that gives half-maximal velocity. B1: the “Enzyme Activity (% WT)” value in data set [1] turned out to be 100 % WT. Further, the Km in data set [2] (substrate SAM, read-out: SAM Km) was found to be 12 ± 6.9 µM; in data set [2] (substrate sodium arsenite, read-out: Sodium Arsenite Km) it was 4.6 µM.

These data come from patent US7250290B1, “Arsenic methyltransferase sequence variants” (priority 2003, dated 2007).
